Data published in patent US20160145325A1 (AGROSAVFE N V, published 2016).

T1: potato lectin (Solanum Tuberosum Lectin, Vector labs, cat#: L-1160) (Solanum tuberosum (potato), UniProt Q9S8M0 23-323)
T1 construct: Bought glycoprotein coated on ELISA wells as an unrelated control compound
T1 sequence: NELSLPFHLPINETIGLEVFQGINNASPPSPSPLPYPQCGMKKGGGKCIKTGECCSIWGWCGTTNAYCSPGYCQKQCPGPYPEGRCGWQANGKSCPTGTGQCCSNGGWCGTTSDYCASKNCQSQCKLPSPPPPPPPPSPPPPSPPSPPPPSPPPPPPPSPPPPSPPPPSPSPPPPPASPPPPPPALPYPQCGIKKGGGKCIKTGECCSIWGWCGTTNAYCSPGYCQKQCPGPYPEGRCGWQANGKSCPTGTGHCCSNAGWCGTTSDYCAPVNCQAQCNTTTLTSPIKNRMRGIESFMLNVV


Target: T1, potato lectin (Solanum Tuberosum …)
Assay: ELISA, purified VHH on wells coated with potato lectin, OD 405 nm

Binder | binding result
anti-GlcCer VHH 41D01 (VHH, Llama VHH raised against fungal glucosylceramide, made in E. coli and purified through its hexahistidine tag; Tested as purified VHH at 0.1 ug/ml; also called GlcCer-specific VHH 41D01; not shown: C-terminal (His)6 and c-myc peptide tags coded by vector pASF20) VHH: QVQLQESGGGLVQAGGSLRLSCAASGRTFSRYGMGWFRQLPGKQRELVTSITRGGTTTYADSVKGRFTISRDNAKNTVYLQMNSLKPEDTAVYYCNARSIWRDYWGQGTQVTVSS | no binding (tested: 0.1 µg/ml)
anti-GlcCer VHH 56F11 (VHH, Llama VHH raised against fungal glucosylceramide, made in E. coli and purified through its hexahistidine tag; Tested as purified VHH at 1 ug/ml; not shown: C-terminal (His)6 and c-myc peptide tags coded by vector pASF20) VHH: QVQLQESGGGLVQSGGSLRLSCVHSKTTFTRNAMGWYRQALGKERELVATITSGGTTNYADSVKGRFTISMDSAKNTVYLQMNSLKPEDTAVYYCNVNTRRIFGGTVREYWGQGTQVTVSS | no binding (tested: 1 µg/ml)
